PMC4002474, “Secretoglobin 1A1 and 1A1A Differentially Regulate Neutrophil Reactive Oxygen Species Production, Phagocytosis and Extracellular Trap Formation” (PLoS ONE, 2014)

B1: equine recombinant SCGB 1A1 (secretoglobin family 1A member 1) (natural protein, horse (E. caballus), UniProt Q8MKG2 22-91, looked up)
chain: EICQSFADIIQGLFLGTPASFEAAVEPFKPDADMKAATTQLKTLVDFLPKNTKDSILKLMDKIAKSPLCA
notes: SCGB 1A1 of the horse (E. caballus), mature protein without the signal peptide, cDNA from equine lung, 100% identical to NCBI JQ906260.1; Cloned in pMAL-c5X, said to add no vector-derived residues after Factor Xa cleavage; Disulfide-dependent homodimer; also called club (Clara) cell secretory protein; CCSP; source: E. coli BL21 (NEB Express), purified (amylose column, Factor Xa, FPLC SuperDex …)

What was measured:
[1] = target: equine recombinant SCGB 1A1A (horse (E. caballus)); assay: non-reducing SDS-PAGE; purified recombinant protein run on SDS-PAGE in non-reducing conditions; dimers and monomers confirmed by Western blot under denaturing and mild reducing conditions
[2] = target: the molecule itself; assay: as above

Molecule	stoichiometry N [1]	stoichiometry N [2]
equine recombinant SCGB 1A1A (natural protein)	2	
B1		2
